The source of these data is the RNAGym collection of RNA variant scans (doi:10.7554/elife.90254).

The chains are these.
B1: OR4K15 (parent)
chain: GUUAACGGUCAUAGGCCAUGGAAACUAGGAGCACCAUUUCGCUGCCAGUGAAGAAAUGAACAAAGAAAAUCUGGGCCAGGCAGGCAUCAAAAGAAAUAGUCUUGCGCUCAACCAGAAAGUCUGUAAUCAUUUUAAGGGUA

The variants in this data set derive from B1. The experiment in a line: self-cleavage, relative activity (ratio to wild type); higher = more cleavage; in vitro, sequencing; the parent is a self-cleaving ribozyme.
For the variant GUUAACGGUCAUAGGCCAUGGAAACUAGGAGCACCAUUUCGCUGCCAGUGAAGAAAUGAACAAAGAAAAUCUGUGCCAGGCAAGCAUCAAAAGAAAUAGUCUUGCGCUCAACCAGAAAGUCUGUAAUCAUUUUAAGGGUA [G74U G83A], the self-cleavage is 0.16.
Turning to GUUAACGGUCAUAGGCCAUGGAAACUAGGAGCACCAUUUCGCUGCCAGUGAAGAAGUGAACAAAGAAAAUCUGGGCCAGGCAGGCAUCAAAAGAAAUAGUCUUGCGCUCAACCAGAGAGUCUGUAAUCAUUUUAAGGGUA [A56G A117G], the self-cleavage stood at 1.3.
Turning to GUUAACGGUCAUAGGCCAUGGAAACUAGGAGCACCAUUUCGCUGCCAGUGAAGAAAUGAAUAAAGAAAAUCUGGGCCAGGCAGGCAUCAAAAGAAAUAGUCUUGCGCUCAACCAGAAAGUCUGUAAUCAUUUUAAGGGUA [C61U], the self-cleavage was 1.8.
In the case of GUUAACGGUCAUAGGCCAUGGAAACUAGGAGCACCAUUUCGCUGCCAGUGAGGAAAUGAACAAAGAAAAUCUGGGCCAGGCAGGCAUCAAAAGAAAUGGUCUUGCGCUCAACCAGAAAGUCUGUAAUCAUUUUAAGGGUA [A52G A98G] it was 0.8; in that of GUUAACGGUCAUAGGCCAUGGAAACUAGGAGCACCAUUUCGCUGCCAGUGAAGAAAUGAACUAAGAAAAUCUGGGCCAGGCAGGCAUCAAAAGAAAUAGUCUUGCGCUCAUCCAGAAAGUCUGUAAUCAUUUUAAGGGUA [A62U A111U], 0.07.
In the case of GUUAACGGUCAUAGGCCAUGGAAACUAGGAGCACCAUUUCGCUGCCAGUGAAGAAAUGAACAAAGAGAAUCUGGGCCAGGCAGGCAUCAAAAGAAAUAGUCUUGCGCUCAACCAGAAAGUCUGUAACCAUUUUAAGGGUA [A67G U127C] it was 1.16.
In the case of GCUAACGGUCAUAGGCCAUGGAAACUAGGAGCACCAUUUCGCUGCCAGUGAAAAAAUGAACAAAGAAAAUCUGGGCCAGGCAGGCAUCAAAAGAAAUAGUCUUGCGCUCAACCAGAAAGUCUGUAAUCAUUUUAAGGGUA [U2C G53A] it was 1.18; in that of GUUAACGGUCACAGGCCAUGGAAACUAGGAGCACCAUUUCGCUGCCAGUGAAGAAAUGAACAAAGAAAAUCUGGGCCAGGCAGCCAUCAAAAGAAAUAGUCUUGCGCUCAACCAGAAAGUCUGUAAUCAUUUUAAGGGUA [U12C G84C], 0.31; in that of GUCAACGGUCAUAGGCCAUGGAAACUAGGAGCACCAUUUCGCUGCCAGUGAAGAAAUGAACAAAGAAAAUCUGGGCCAGGCAGGCAUCAAGAGAAAUAGUCUUGCGCUCAACCAGAAAGUCUGUAAUCAUUUUAAGGGUA [U3C A91G], 0.84.
For the variant GUUAACGGUCAUAGGCCAUGGAAACUAGGAGCACCAUUUCGCUGCCAGUGAAGAAAUGAACAAAGAAAAUCUGGGCCAGGCAGGCAUCAAAGGAAAUAGUCUUGCGCUCAACCAGAAAGUCUGUAAUCAUUUUAAGGGUG [A92G A140G], the self-cleavage amounted to 1.69.
Turning to GUUAGCGGUCAUAGGCCAUGGAAACUAGGAGCACCAUGUCGCUGCCAGUGAAGAAAUGAACAAAGAAAAUCUGGGCCAGGCAGGCAUCAAAAGAAAUAGUCUUGCGCUCAACCAGAAAGUCUGUAAUCAUUUUAAGGGUA [A5G U38G], the self-cleavage was determined as 1.02.
Regarding GUUAACGGUCAUAGGCCAUGGAAACUAGGAGCACCAUUUCGCUGCCAGUGAAGAAAUGAACAAAGGAAAUCUGGGACAGGCAGGCAUCAAAAGAAAUAGUCUUGCGCUCAACCAGAAAGUCUGUAAUCAUUUUAAGGGUA [A66G C76A], the self-cleavage was determined as 0.23.
As for GUUAACGGUCAUAGCCCAUGGAAACUAGGAGCACCAUUUCGCUGCCAGUGAAGAAAUGAACAAAGAGAAUCUGGGCCAGGCAGGCAUCAAAAGAAAUAGUCUUGCGCUCAACCAGAAAGUCUGUAAUCAUUUUAAGGGUA [G15C A67G], the figure is 1.63; as for GUUAACGGUCAUAGGCCAUGGAAACUAGGAGCACCAUUUCGCUGCCAGUGAAGAAAUGAACAAAGAAAAUCUGGGCUAGGCGGGCAUCAAAAGAAAUAGUCUUGCGCUCAACCAGAAAGUCUGUAAUCAUUUUAAGGGUA [C77U A82G], 1.26; as for GUUAACGGUCAUAGGCCAUGGAAACUAGGAGCACCAUUUCGCUGCCGGUGAAGAAAUGAACAAAGAAAAUCUGGGCCAGGCAGGCAUCAAAAGAAAUUGUCUUGCGCUCAACCAGAAAGUCUGUAAUCAUUUUAAGGGUA [A47G A98U], 0.85.
In the case of GUUAACGGUCAUAGGCCAUGGAAACUAGGAGCACCAUUUCGCUGCCAGUGAAGAGAUGAACAAUGAAAAUCUGGGCCAGGCAGGCAUCAAAAGAAAUAGUCUUGCGCUCAACCAGAAAGUCUGUAAUCAUUUUAAGGGUA [A55G A64U], the self-cleavage turned out to be 2.41.
In the case of GUUAACGGUCAUAGGCCAUGGAAACUAGGAGCACCAUUUUGCUGCCAGUGAAGAAAUGAACAAAGAAGAUCUGGGCCAGGCAGGCAUCAAAAGAAAUAGUCUUGCGCUCAACCAGAAAGUCUGUAAUCAUUUUAAGGGUA [C40U A68G] it was 1.84.
In the case of AUUAACGGUCAUAGGCCAUGGAAACUAGGAGCACCAUUUCGCUGCCAGUGAAGAAAUGAACAAAGAAAAUCUGGGCCAGGCAGGCAUCAAAAGAAAUAGUCUUGCGCUCAACCGGAAAGUCUGUAAUCAUUUUAAGGGUA [G1A A114G] it was 1.32.
In the case of GUUAACGGUCAUAGGCCAUGGAAACUAGGAGCACCAUUUCGCUGCCAGUGAAGGAAUGAACAGAGAAAAUCUGGGCCAGGCAGGCAUCAAAAGAAAUAGUCUUGCGCUCAACCAGAAAGUCUGUAAUCAUUUUAAGGGUA [A54G A63G] it was 1.55; in that of GUUAACGGUCAUAGGCCAUGGGAACUAGGAGCACCAUUUCGCUGCCAGUGAAGAAGUGAACAAAGAAAAUCUGGGCCAGGCAGGCAUCAAAAGAAAUAGUCUUGCGCUCAACCAGAAAGUCUGUAAUCAUUUUAAGGGUA [A22G A56G], 1.01; in that of GUUAACGGUCAUAGGCCAUGGAAACUAGGAGCACCAUUUCGCUGCCAGUGAAGAAAUGAACAAGGAAAAUCUGGGCCAGGCAGGCAUCAAAAGAAAUAGUCUUGCGCUCAACCAGAAAGUCCGUAAUCAUUUUAAGGGUA [A64G U122C], 1.81.
As to GUUAACGGUCAUAGGCCAUGGAAACUAGGAGCACCAUUUCGCUGCCAGUGAAGAAAUGAACAAAGGAAAUCUGGGCCAGGCAGGCAUCAAAAGAAAUAGUCUUGCGCUCAGCCAGAAAGUCUGUAAUCAUUUUAAGGGUA [A66G A111G], the self-cleavage is 0.02.
In the case of GUUAACGGUCAUAGGCCAUGGAAACUAGGAGCACCAUUUCGCUGCCAGUGAAGAAAAGAACAAAGAAAAUCUGGGCCAGGCAGGCAUCAAAAGAAAUAGUCUUGCGCUCAACCAGAAAGUCUCUAAUCAUUUUAAGGGUA [U57A G123C] it was 1.58.
As for GUUAACGGUCAUAGGCCAUGGAAACUAGGAGCACCAUUUCGCUGCCGGUGAAGGAAUGAACAAAGAAAAUCUGGGCCAGGCAGGCAUCAAAAGAAAUAGUCUUGCGCUCAACCAGAAAGUCUGUAAUCAUUUUAAGGGUA [A47G A54G], the figure is 1.22; as for GUUAACGGUCAUAGGCCAUGGAAACUAGGAGCACCAUUUCGCUACCAGUGAAGAAAUGAACAAAGAAAAUCUGGGCCAGGCAGGCAUCAAAAGAAAUAGUCUUGCGCUCAACCAGAAAGUCUGCAAUCAUUUUAAGGGUA [G44A U124C], 0.45.
Regarding GUUAACGGUCAUAGGCCAUGGAAACUAGGAGCACCAUUUCGCUGCCAGUGAAGAAACGAACAAAGAAAAUCUAGGCCAGGCAGGCAUCAAAAGAAAUAGUCUUGCGCUCAACCAGAAAGUCUGUAAUCAUUUUAAGGGUA [U57C G73A], the self-cleavage was found to be 0.15.
In the case of GUUAACGGGCAUAGGCCAUGGAAACUAGGAGCACCAUUUCGCUGCCAGUGAAGAAAUGAACAAAGAAAAUCUGGGCCAGGCAGGCAUCAAAAGAAAUAGUCUUGCGCUCAACCAGAGAGUCUGUAAUCAUUUUAAGGGUA [U9G A117G] it was 2.41.
On to GUUAACGGUCAUAGGCCAUGGAAACUAGGAGCACCAUUUCGCUGCCAGUGAAGAAAUGAACAAAGAAAAUCUGGGCCGGGCAGGCAUCAAAAGAAAUCGUCUUGCGCUCAACCAGAAAGUCUGUAAUCAUUUUAAGGGUA [A78G A98C], for which the self-cleavage turned out to be 0.27.
In the case of GUUAACGGUCAUAGGCCAUGGAAACUAGGAGCAUCAUUUCGCUGCCAGUGAAGAAAUGAACAAAGAAAAUCUGGGCCAGGCAGGCAUCAAAAGAAAUAGUCUUGCGCUCAACCAGGAAGUCUGUAAUCAUUUUAAGGGUA [C34U A116G] it was 0.54; in that of GUUAACGGUCAUAGGCCAUGGAACCUAGGAGCACCAUUUAGCUGCCAGUGAAGAAAUGAACAAAGAAAAUCUGGGCCAGGCAGGCAUCAAAAGAAAUAGUCUUGCGCUCAACCAGAAAGUCUGUAAUCAUUUUAAGGGUA [A24C C40A], 1.99.
As to GUUAACGGUCAUAGGCCAUGGAAACUAGGAGCACCACUUCGCUGCCAGUGAAGAAAUGAACAAAGAAAAUCUGGGCCAGGCAGGCAUCAAAAGAAAUAGUCUUGCGCUCAGCCAGAAAGUCUGUAAUCAUUUUAAGGGUA [U37C A111G], the self-cleavage came out at 0.03.
For GUUAACGGUCAUAGGCCAUGGAAACUAGGAGCACCAUUUCGCUGCCAGUGAAGAAAUGAGCAAAGAAAAUCUGGGCCAGUCAGGCAUCAAAAGAAAUAGUCUUGCGCUCAACCAGAAAGUCUGUAAUCAUUUUAAGGGUA [A60G G80U], the self-cleavage came to 0.09.
In the case of GUUAACGGUCAUAGGCCAUGGAAACUAGGAGCACCAUUUCGCUGCCAGUGAAGAAAUGAACAAAGAGAUUCUGGGCCAGGCAGGCAUCAAAAGAAAUAGUCUUGCGCUCAACCAGAAAGUCUGUAAUCAUUUUAAGGGUA [A67G A69U] it was 1.32.
In the case of GUUAACGGUCAUAGGCCAUGGAUACUAGGAGCACCAUUUCGCUGCCAGUGAAGAAAUGAACAAAGAAAAUCUGGGCCAGGCAGGCAUCAAAAGAAAUAGUCAUGCGCUCAACCAGAAAGUCUGUAAUCAUUUUAAGGGUA [A23U U102A] it was 1.09; in that of GUUAACGGUCAUAGGCCAUUGAAACUAGGAGCACCAUUUCGCUGCCAGUGAAGAAAUGAACAAAGAAAAUCUGGGCCAGGCAGGCAUCAAAAGAAAUAGUCUUGCGCUCAACCAGAAAGUCUGUAAUCAUUUUAAGGGUA [G20U], 1.53; in that of GAUAACGGUCAUAGGCCAUGGAAACUAGGAGCACCAUUUCGCUGCCAGUGAAGAAAUGAACAAAGAAAAUCUGGGCCAGGCAGGCAUCAAAAGAAAUAGUCUUGCGCUCAACCAGAUAGUCUGUAAUCAUUUUAAGGGUA [U2A A117U], 0.49.
As for GUUAACGGUCAUAGGCCAUGGAAACUAGGAGCACCAUUUCGCUGCCAGUGAAGAAAUGAACAAAGACAAUCUGGGCCAGGCAGGCAUCAAAAGAAAUAGUCUUGCGCUCAACCAGAGAGUCUGUAAUCAUUUUAAGGGUA [A67C A117G], the figure is 2.74; as for GUUAACGGUCGUAGGCCAUGGAAACUAGGAGCACCAUUUCGCUGCCAGUGAAGAAAUGUACAAAGAAAAUCUGGGCCAGGCAGGCAUCAAAAGAAAUAGUCUUGCGCUCAACCAGAAAGUCUGUAAUCAUUUUAAGGGUA [A11G A59U], 0.98.
For GUUAACGGUCAUAGGCCAUGGAAACUAGGAGCACCAUUUCGCUGCCAGUGGAGAAAUGAACCAAGAAAAUCUGGGCCAGGCAGGCAUCAAAAGAAAUAGUCUUGCGCUCAACCAGAAAGUCUGUAAUCAUUUUAAGGGUA [A51G A62C], the self-cleavage came to 1.58.
In the case of GUUAACGGUCAUAGGCCAUGGAAACUAGGAGCACCAUUUCGCUGCCAGUGAAGAAAUGAACAAAGAGAAUCUGGGCCAGGCAGGCAUCAAAAGAAAUAGUCUUGCGCUCAACCAGAACGUCUGUAAUCAUUUUAAGGGUA [A67G A118C] it was 0.76.
As to GUUAACGGUCAUAGGCCAUGGAAACUAGGAGCACCAUUUCGCUGCCAGUGAAGGAAUGAACAAAGAAAAUCUGGGCCAGGCAGGCUUCAAAAGAAAUAGUCUUGCGCUCAACCAGAAAGUCUGUAAUCAUUUUAAGGGUA [A54G A86U], the self-cleavage is 1.71.
